By Km is commonly meant the concentration of substrate that gives half-maximal velocity. What is called kcat is the maximal rate divided by the concentration of active sites. What is called kcat/Km is the second-order rate constant that governs catalysis at low substrate concentration.

For 1 substance, Km, kcat and kcat/Km results are on record in article PMC10180074, “Improved Stability and Catalytic Efficiency of ω-Transaminase in Aqueous Mixture of Deep Eutectic Solvents” (Molecules, 2023).

One data set deals with C[C@@H](N)c1ccccc1. Description: Michaelis-Menten fit; acetophenone by HPLC. The data set is classed as biochemical, Aspergillus terreus. The following applies: phosphate buffer, no DES, pyruvate constant, PLP, pH 8.0, 40 °C. The text has this:
(§1) Michaelis-Menten fit; acetophenone by HPLC on ω-TA variant from Aspergillus terreus (E133A)

The next data set deals with CC(=O)C(=O)O. Description: Michaelis-Menten fit; acetophenone by HPLC. The class given is biochemical, Aspergillus terreus. To be noted: phosphate buffer, no DES, 1-(R)-PEA co-substrate, PLP, pH 8.0, 40 °C.
Description: as §1

On to “ω-TA variant from Aspergillus terreus (E133A) (Aspergillus terreus NIH2624; E133A)”, for which, in the data set with C[C@@H](N)c1ccccc1, the Km came out at 650 ± 70 µM, the kcat came to 0.8027 ± 0.000833 s⁻¹ and the kcat/Km came out at 1230 M⁻¹ s⁻¹. In the data set with CC(=O)C(=O)O, the Km worked out at 640 ± 70 µM, the kcat was 0.54967 ± 0.0005 s⁻¹ and the kcat/Km came to 853 M⁻¹ s⁻¹.
